Test results: paper PMC10527483

Assays:
Assay in all cases: pull-down
QKI7 = molecular target: T1, QKI7 (human, UniProt Q96PU8-6 1-325)
T1 sequence: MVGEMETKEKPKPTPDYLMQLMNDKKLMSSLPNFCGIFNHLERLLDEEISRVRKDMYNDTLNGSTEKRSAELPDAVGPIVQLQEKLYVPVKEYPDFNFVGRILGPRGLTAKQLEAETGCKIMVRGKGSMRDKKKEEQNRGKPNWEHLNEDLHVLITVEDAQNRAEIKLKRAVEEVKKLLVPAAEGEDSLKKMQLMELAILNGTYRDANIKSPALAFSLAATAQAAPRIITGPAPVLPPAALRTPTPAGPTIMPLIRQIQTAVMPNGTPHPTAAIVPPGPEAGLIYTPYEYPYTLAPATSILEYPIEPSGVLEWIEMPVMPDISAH

QKI5 = molecular target: T2, QKI5 (human, UniProt Q96PU8 1-341)
T2 sequence: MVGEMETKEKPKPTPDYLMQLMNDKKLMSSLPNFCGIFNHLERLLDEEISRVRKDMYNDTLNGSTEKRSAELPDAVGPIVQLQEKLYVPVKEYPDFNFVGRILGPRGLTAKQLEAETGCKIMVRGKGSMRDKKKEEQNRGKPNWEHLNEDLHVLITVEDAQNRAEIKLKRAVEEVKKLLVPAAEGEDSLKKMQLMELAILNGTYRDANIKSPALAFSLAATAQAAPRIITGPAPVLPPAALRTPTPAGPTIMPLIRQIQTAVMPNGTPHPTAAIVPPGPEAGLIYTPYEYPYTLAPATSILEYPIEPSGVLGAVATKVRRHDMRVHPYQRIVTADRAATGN

QKI6 = molecular target: T3, QKI6 (human, UniProt Q96PU8-9 1-319)
T3 sequence: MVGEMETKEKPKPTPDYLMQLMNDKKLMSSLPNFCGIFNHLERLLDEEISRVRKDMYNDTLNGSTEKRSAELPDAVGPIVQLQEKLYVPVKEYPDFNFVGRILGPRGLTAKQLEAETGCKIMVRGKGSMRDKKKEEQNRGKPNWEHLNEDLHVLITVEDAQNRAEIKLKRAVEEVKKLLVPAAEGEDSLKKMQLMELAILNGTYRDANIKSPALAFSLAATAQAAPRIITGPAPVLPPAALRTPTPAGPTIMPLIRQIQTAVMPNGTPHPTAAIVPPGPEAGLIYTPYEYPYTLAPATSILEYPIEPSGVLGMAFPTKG

Measured: binding result

B1: m7G-Oligo, 60-mer (ssRNA)
RNA: CCAAUAAAAUAUUAACCACCAAUAAAAUAUUAACCAAGAUCCACCAAUAAAAUAUUAACC
modifications: N7-methylguanosine at G38 (the only G)
binds: QKI7 | QKI5 | QKI6
